Laboratory results reported in paper doi:10.1101/2023.06.01.543357, “Novel histones and histone variant families in prokaryotes” (bioRxiv, 2023).

Biological target: the molecule itself
Assay: crystal structure; HTkC at 4.0 mg/mL in 50 mM Tris-HCl pH 7.0, 100 mM KCl, 10% glycerol; sitting drop vapour diffusion, reservoir 0.01 M trisodium citrate, 33% (w/v) PEG 6000; space group P212121, 1.84 Å; four monomers in the asymmetric unit; dimers to tetramer

B1: face-to-face (FtF) histone from Thermococcus kodakarensis (HTkC) (natural protein)
chain: MAEMLVKSKVKEFVKSVDPEMRVSPEFYDALEAEVKALVEKAIKRAQAEGRKTLYARHV
notes: Face-to-face histone HTkC of Thermococcus kodakarensis, product of gene TK1040 (synthesised gene cloned into pET30b, plasmid pRD503); purification was by heat, heparin and size exclusion; The crystal holds four monomers (two dimers) in the asymmetric unit, forming a torus-shaped tetramer; also called FtF histone HTkC; TK1040; source: E. coli BL21(DE3)pLysS, purified (heat step at 70 °C, HiTrap …)
stoichiometry N: 4
